Data as given in the supplement of paper PMC9732359.
± gives the uncertainty stated by the source.

Assay: protein stability index of a GFP-peptide fusion (yeast GPS) (PSI 1-4); higher = more stable; sorted into four equal gates, so the index is relative within each strain
Method in brief: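 Tiled 17-residue yeast protein peptides were fused downstream of GFP in a plasmid that also expresses Cherry, and the pooled library was carried in yeast. Mid-log cultures in leucine-free medium were sorted into four equal gates by GFP/Cherry fluorescence ratio, and plasmids from each gate were PCR-amplified and Illumina-sequenced, with reads assigned to strains by barcodes. The protein stability index for each peptide was each gate's read frequency times its gate number, summed.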

Sequence: ISLRNNHKIIARVKAFD [SMD2]
- protein stability index (doa10∆): 1.79 ± 0.044
- protein stability index (pdr5∆): 2.02 ± 0.038
- protein stability index (san1∆): 2.49 ± 0.051
- protein stability index (ubr1∆): 2 ± 0.041

Sequence: GKIPTLKISLIQIFRAH [PRP8]
- protein stability index (doa10∆): 1.72 ± 0.045
- protein stability index (pdr5∆): 1.44 ± 0.044
- protein stability index (san1∆): 1.33 ± 0.073
- protein stability index (ubr1∆): 1.29 ± 0.041

Sequence: AHTASVGVVFGSGAANE [COR1]
- protein stability index (doa10∆): 3.23 ± 0.12
- protein stability index (pdr5∆): 3.29 ± 0.084
- protein stability index (san1∆): 3.07 ± 0.1
- protein stability index (ubr1∆): 3.39 ± 0.12

Sequence: KKRSKARKETYSSYIYK [HTB1]
- protein stability index (doa10∆): 2.84 ± 0.24
- protein stability index (pdr5∆): 2.9 ± 0.15
- protein stability index (ubr1∆): 2.95 ± 0.15

Sequence: VFYRMQQLRRALPDVVV [RPO31]
- protein stability index (doa10∆): 1.83 ± 0.038
- protein stability index (pdr5∆): 1.93 ± 0.035
- protein stability index (san1∆): 1.82 ± 0.074
- protein stability index (ubr1∆): 1.99 ± 0.047

Sequence: KSIMDGIHDGHIKKLLH [FAS1]
- protein stability index (doa10∆): 1.54 ± 0.035
- protein stability index (pdr5∆): 1.48 ± 0.037
- protein stability index (san1∆): 1.37 ± 0.075
- protein stability index (ubr1∆): 1.38 ± 0.024

Sequence: INSIDTTESSDLKEGLQ [GRR1]
- protein stability index (doa10∆): 2.54 ± 0.062
- protein stability index (pdr5∆): 2.6 ± 0.046
- protein stability index (san1∆): 3.18 ± 0.037
- protein stability index (ubr1∆): 3.05 ± 0.032

Sequence: LIGCIDEAKDFIVSGTA [PUP3]
- protein stability index (doa10∆): 2.59 ± 0.058
- protein stability index (pdr5∆): 2.67 ± 0.061
- protein stability index (san1∆): 2.66 ± 0.053
- protein stability index (ubr1∆): 3.01 ± 0.044

Sequence: KQVQISHHLKADTIDHD [YGL172W/NUP49]
- protein stability index (doa10∆): 2.91 ± 0.067
- protein stability index (pdr5∆): 3.09 ± 0.053
- protein stability index (san1∆): 2.79 ± 0.065
- protein stability index (ubr1∆): 2.92 ± 0.043

Sequence: SFKYLSNNDEDDKDCTI [RGR1]
- protein stability index (doa10∆): 2.51 ± 0.05
- protein stability index (pdr5∆): 2.41 ± 0.04
- protein stability index (san1∆): 2.18 ± 0.055
- protein stability index (ubr1∆): 2.62 ± 0.034

Sequence: REGRHSGYGKRKGTREA [RPL19A]
- protein stability index (pdr5∆): 3.21 ± 0.27
- protein stability index (ubr1∆): 3.52 ± 0.25

Sequence: GNSFNKSSNDTIEHAAD [YCG1]
- protein stability index (doa10∆): 2.14 ± 0.058
- protein stability index (pdr5∆): 2.67 ± 0.048
- protein stability index (san1∆): 2.37 ± 0.047
- protein stability index (ubr1∆): 2.64 ± 0.057

Sequence: KLNTFENDLLQEFDSEL [SMC3]
- protein stability index (doa10∆): 3.22 ± 0.13
- protein stability index (pdr5∆): 3.3 ± 0.11
- protein stability index (san1∆): 3.03 ± 0.1
- protein stability index (ubr1∆): 2.78 ± 0.1

Sequence: ESILQMNQGEGEPEAGN [RPC34]
- protein stability index (doa10∆): 3 ± 0.2
- protein stability index (pdr5∆): 3.18 ± 0.093
- protein stability index (san1∆): 3.46 ± 0.26
- protein stability index (ubr1∆): 3 ± 0.13

Sequence: IATGCKDGRIRIFKITE [YGL100W/SEH1]
- protein stability index (doa10∆): 2.22 ± 0.069
- protein stability index (pdr5∆): 2.47 ± 0.066
- protein stability index (san1∆): 2.21 ± 0.094
- protein stability index (ubr1∆): 2.43 ± 0.046

Sequence: LANRSKENFILDSLMKT [YJL039C/NUP192]
- protein stability index (doa10∆): 2.47 ± 0.095
- protein stability index (pdr5∆): 2.64 ± 0.12
- protein stability index (san1∆): 3.03 ± 0.12
- protein stability index (ubr1∆): 2.69 ± 0.069

Sequence: SRKETSRTATWLKNKFA [BRR2]
- protein stability index (doa10∆): 1.37 ± 0.057
- protein stability index (pdr5∆): 1.29 ± 0.041
- protein stability index (san1∆): 1.67 ± 0.11
- protein stability index (ubr1∆): 1.49 ± 0.063

Sequence: PATTSQMAKDVTTFLNW [CYT1]
- protein stability index (doa10∆): 3.16 ± 0.12
- protein stability index (pdr5∆): 3.02 ± 0.13
- protein stability index (san1∆): 2.84 ± 0.15
- protein stability index (ubr1∆): 3.31 ± 0.27

Sequence: RGFIKSEGSGSSLVQKG [RPC53]
- protein stability index (doa10∆): 3.37 ± 0.1
- protein stability index (pdr5∆): 3.34 ± 0.09
- protein stability index (san1∆): 3.31 ± 0.076
- protein stability index (ubr1∆): 3.14 ± 0.057

Sequence: KVGEDIAKATKEFKGIK [RPL12A]
- protein stability index (doa10∆): 3.07 ± 0.16
- protein stability index (pdr5∆): 3.22 ± 0.14
- protein stability index (san1∆): 3.25 ± 0.15
- protein stability index (ubr1∆): 3.17 ± 0.15

Sequence: GPEITPEEATTIFSVMV [PRP8]
- protein stability index (doa10∆): 2.09 ± 0.13
- protein stability index (pdr5∆): 2.37 ± 0.14
- protein stability index (san1∆): 1.77 ± 0.22
- protein stability index (ubr1∆): 2.6 ± 0.13

Sequence: QGRRNSRNFSTRDEETT [SIR4]
- protein stability index (doa10∆): 3.04 ± 0.064
- protein stability index (pdr5∆): 3.11 ± 0.055
- protein stability index (san1∆): 3.12 ± 0.041
- protein stability index (ubr1∆): 2.98 ± 0.041

Sequence: FQLIDMKDKEINIQKYN [CSI1]
- protein stability index (doa10∆): 2.47 ± 0.17
- protein stability index (pdr5∆): 1.98 ± 0.11
- protein stability index (ubr1∆): 2.57 ± 0.14

Sequence: SKSNLIHNYDSKKSTIT [RGR1]
- protein stability index (doa10∆): 3.03 ± 0.067
- protein stability index (pdr5∆): 3.03 ± 0.054
- protein stability index (san1∆): 3.05 ± 0.04
- protein stability index (ubr1∆): 3.11 ± 0.038

Sequence: SPLYMDTETFDTVNSAL [YML103C/NUP188]
- protein stability index (doa10∆): 3.11 ± 0.14
- protein stability index (pdr5∆): 3.27 ± 0.14
- protein stability index (san1∆): 3.18 ± 0.074
- protein stability index (ubr1∆): 3.21 ± 0.058

Sequence: SGTPITQTESKKEENET [SNF2]
- protein stability index (doa10∆): 2.77 ± 0.052
- protein stability index (pdr5∆): 2.59 ± 0.045
- protein stability index (san1∆): 2.94 ± 0.046
- protein stability index (ubr1∆): 2.82 ± 0.036

Sequence: HLELYTSQYGTPSTETA [PRE3]
- protein stability index (doa10∆): 1.39 ± 0.043
- protein stability index (pdr5∆): 1.9 ± 0.04
- protein stability index (san1∆): 1.44 ± 0.084
- protein stability index (ubr1∆): 1.64 ± 0.037

Sequence: EKIDGMDVDSVKTTLVS [RPC82]
- protein stability index (doa10∆): 2.54 ± 0.11
- protein stability index (pdr5∆): 2.78 ± 0.12
- protein stability index (san1∆): 2.73 ± 0.11
- protein stability index (ubr1∆): 2.1 ± 0.29

Sequence: RSMSGQPPTNVQPTIGQ [SNF5]
- protein stability index (doa10∆): 2.74 ± 0.065
- protein stability index (pdr5∆): 2.97 ± 0.071
- protein stability index (san1∆): 3.01 ± 0.074
- protein stability index (ubr1∆): 3.15 ± 0.036

Sequence: EESIKIYPLIKPGSTVM [UBP6]
- protein stability index (doa10∆): 2.94 ± 0.18
- protein stability index (pdr5∆): 3.01 ± 0.093
- protein stability index (ubr1∆): 2.96 ± 0.17

Sequence: TLDKPNAEATKEEFSSA [CSE2]
- protein stability index (doa10∆): 2.99 ± 0.11
- protein stability index (pdr5∆): 3.12 ± 0.1
- protein stability index (san1∆): 3.23 ± 0.064
- protein stability index (ubr1∆): 3.13 ± 0.069

Sequence: SARNYDKFKLNENDLKT [SMC1]
- protein stability index (doa10∆): 2.55 ± 0.093
- protein stability index (pdr5∆): 2.46 ± 0.088
- protein stability index (san1∆): 2.35 ± 0.22
- protein stability index (ubr1∆): 2.53 ± 0.063

Sequence: CSFAVTKSSLNDLDYDL [YML103C/NUP188]
- protein stability index (doa10∆): 3.04 ± 0.1
- protein stability index (pdr5∆): 3.13 ± 0.091
- protein stability index (san1∆): 3.01 ± 0.078
- protein stability index (ubr1∆): 3.1 ± 0.055

Sequence: AFVSVYSKNNPNLLFSM [PRP8]
- protein stability index (doa10∆): 1.93 ± 0.063
- protein stability index (pdr5∆): 2.74 ± 0.058
- protein stability index (san1∆): 2.61 ± 0.064
- protein stability index (ubr1∆): 2.71 ± 0.038

Sequence: EFANFELKDICSFAVTK [YML103C/NUP188]
- protein stability index (doa10∆): 2.07 ± 0.072
- protein stability index (pdr5∆): 2.29 ± 0.065
- protein stability index (san1∆): 2.22 ± 0.12
- protein stability index (ubr1∆): 2.05 ± 0.043

Sequence: QGIVRVYSKQATFLLTD [MCD1]
- protein stability index (doa10∆): 1.97 ± 0.038
- protein stability index (pdr5∆): 2.29 ± 0.047
- protein stability index (san1∆): 2.35 ± 0.049
- protein stability index (ubr1∆): 2.03 ± 0.037

Sequence: TITDLIEQGIPKHSYLS [SIR4]
- protein stability index (doa10∆): 3.05 ± 0.059
- protein stability index (pdr5∆): 3.16 ± 0.06
- protein stability index (san1∆): 3.21 ± 0.073
- protein stability index (ubr1∆): 3.17 ± 0.043

Sequence: ICYNKKTEYVLNDLNHL [REC8]
- protein stability index (doa10∆): 1.8 ± 0.19
- protein stability index (pdr5∆): 1.75 ± 0.091
- protein stability index (san1∆): 1.68 ± 0.21
- protein stability index (ubr1∆): 1.88 ± 0.19

Sequence: FEQPSQREEAKKVVKKA [RPL27A]
- protein stability index (doa10∆): 2.95 ± 0.15
- protein stability index (pdr5∆): 3.28 ± 0.13
- protein stability index (san1∆): 3.13 ± 0.15
- protein stability index (ubr1∆): 3.05 ± 0.14

Sequence: KSLEDLSCQYDNTVRTS [RPO31]
- protein stability index (doa10∆): 1.3 ± 0.19
- protein stability index (pdr5∆): 1.31 ± 0.14

Sequence: YPFDKLESWWLVLGEVS [BRR2]
- protein stability index (doa10∆): 3.18 ± 0.18
- protein stability index (pdr5∆): 3.23 ± 0.15
- protein stability index (san1∆): 3.46 ± 0.11
- protein stability index (ubr1∆): 3.41 ± 0.24

Sequence: ARCYRYQKNKPYPKSRY [RPL10]
- protein stability index (doa10∆): 2.3 ± 0.064
- protein stability index (pdr5∆): 2.38 ± 0.065
- protein stability index (san1∆): 2.41 ± 0.055
- protein stability index (ubr1∆): 2.77 ± 0.057

Sequence: QIILDRFAPDNQVTDSS [SIR3]
- protein stability index (pdr5∆): 2.93 ± 0.13
- protein stability index (san1∆): 2.94 ± 0.14
- protein stability index (ubr1∆): 3.11 ± 0.098

Sequence: NSTLKKVESQETLNDTI [YCS4]
- protein stability index (doa10∆): 2.12 ± 0.1
- protein stability index (pdr5∆): 2.43 ± 0.092
- protein stability index (san1∆): 2.37 ± 0.13
- protein stability index (ubr1∆): 2.1 ± 0.11

Sequence: TLLESNLCKIIEPFECV [RPN6]
- protein stability index (doa10∆): 2.26 ± 0.085
- protein stability index (pdr5∆): 2.81 ± 0.12
- protein stability index (san1∆): 2.28 ± 0.12
- protein stability index (ubr1∆): 2.88 ± 0.16

Sequence: GKVVGDKWESYLNLLQE [RPB10]
- protein stability index (doa10∆): 3.24 ± 0.076
- protein stability index (pdr5∆): 2.65 ± 0.086
- protein stability index (san1∆): 2.49 ± 0.11
- protein stability index (ubr1∆): 3.26 ± 0.055

Sequence: EHWKVRNFKKANLVNKE [BRN1]
- protein stability index (doa10∆): 2.06 ± 0.1
- protein stability index (pdr5∆): 1.5 ± 0.051
- protein stability index (san1∆): 1.54 ± 0.13
- protein stability index (ubr1∆): 1.83 ± 0.05

Sequence: PEDPYFNTLVRIMSTRC [DIS3]
- protein stability index (doa10∆): 2.38 ± 0.093
- protein stability index (pdr5∆): 2.72 ± 0.072
- protein stability index (san1∆): 2.56 ± 0.052
- protein stability index (ubr1∆): 1.92 ± 0.049

Sequence: VLKSSVYEYVIASTLGP [RPC82]
- protein stability index (doa10∆): 1.43 ± 0.085
- protein stability index (pdr5∆): 1.53 ± 0.07
- protein stability index (san1∆): 1.23 ± 0.11
- protein stability index (ubr1∆): 1.43 ± 0.055

Sequence: LFSEKTIRYLMQKQHEM [SNF6]
- protein stability index (doa10∆): 2.63 ± 0.044
- protein stability index (pdr5∆): 2.55 ± 0.045
- protein stability index (san1∆): 2.44 ± 0.069
- protein stability index (ubr1∆): 2.66 ± 0.034

Sequence: VANQTSATFLRIVGSEL [RPT2]
- protein stability index (doa10∆): 2.45 ± 0.12
- protein stability index (pdr5∆): 2.29 ± 0.096
- protein stability index (san1∆): 2.15 ± 0.15
- protein stability index (ubr1∆): 2.13 ± 0.082
